Experimental data: article PMC11661312, “The identification of XPR1 as a voltage- and phosphate-activated phosphate-permeable ion channel” (Research Square, 2024)

Target: the molecule itself
Assay: cryo-EM structure; purified hXPR1 at 10 to 20 mg/mL in GDN/LMNG/CHS detergent mixture; apo: 20 mM Tris pH 7.4, 150 mM NaCl (C1 symmetry); also with 25 mM sodium phosphate, 150 mM NaCl, 1 mM phytic acid (InsP6) pH 7.4 (C2 symmetry imposed)

B1: human Xenotropic and Polytropic retrovirus Receptor 1 (hXPR1) (natural protein, UniProt Q9UBH6 1-696, looked up)
chain: MKFAEHLSAHITPEWRKQYIQYEAFKDMLYSAQDQAPSVEVTDEDTVKRYFAKFEEKFFQTCEKELAKINTFYSEKLAEAQRRFATLQNELQSSLDAQKESTGVTTLRQRRKPVFHLSHEERVQHRNIKDLKLAFSEFYLSLILLQNYQNLNFTGFRKILKKHDKILETSRGADWRVAHVEVAPFYTCKKINQLISETEAVVTNELEDGDRQKAMKRLRVPPLGAAQPAPAWTTFRVGLFCGIFIVLNITLVLAAVFKLETDRSIWPLIRIYRGGFLLIEFLFLLGINTYGWRQAGVNHVLIFELNPRSNLSHQHLFEIAGFLGILWCLSLLACFFAPISVIPTYVYPLALYGFMVFFLINPTKTFYYKSRFWLLKLLFRVFTAPFHKVGFADFWLADQLNSLSVILMDLEYMICFYSLELKWDESKGLLPNNSEESGICHKYTYGVRAIVQCIPAWLRFIQCLRRYRDTKRAFPHLVNAGKYSTTFFMVTFAALYSTHKERGHSDTMVFFYLWIVFYIISSCYTLIWDLKMDWGLFDKNAGENTFLREEIVYPQKAYYYCAIIEDVILRFAWTIQISITSTTLLPHSGDIIATVFAPLEVFRRFVWNFFRLENEHLNNCGEFRAVRDISVAPLNADDQTLLEQMMDQDDGVRNRQKNRSWKYNQSISLRRPRLASQSKARDTKVLIEDTDDEANT
notes: Xenotropic and Polytropic retrovirus Receptor 1 (XPR1), human, Uniprot Q9UBH6, full length; cDNA synthesized with a C-terminal Strep-tag II; Homodimer in the detergent mixture (GDN/LMNG/CHS) by cryo-EM; also called SLC53a1; apo-hXPR1
- stoichiometry N: 2
